Data set [1] deals with T1, IpsA (Cg2910) (Corynebacterium glutamicum, UniProt Q8NMF0).
T1 construct: C-terminal STREP-tag variant (pAN6-ipsA-STREP), expressed in E. coli BL21(DE3), StrepTactin and gel filtration; 79 kDa, dimer
T1 sequence (Q8NMF0 1-358): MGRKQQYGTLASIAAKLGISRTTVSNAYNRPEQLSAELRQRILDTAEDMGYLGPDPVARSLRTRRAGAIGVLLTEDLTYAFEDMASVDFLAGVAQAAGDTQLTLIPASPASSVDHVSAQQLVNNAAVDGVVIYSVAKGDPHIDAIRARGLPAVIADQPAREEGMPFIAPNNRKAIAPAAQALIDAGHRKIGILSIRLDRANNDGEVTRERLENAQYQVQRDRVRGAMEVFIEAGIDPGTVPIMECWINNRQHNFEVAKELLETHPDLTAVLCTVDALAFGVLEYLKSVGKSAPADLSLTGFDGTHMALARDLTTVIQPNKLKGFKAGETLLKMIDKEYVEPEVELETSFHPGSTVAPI
Description: EMSA, dissociation of IpsA-DNA complex (ino1 promoter). Type of data set: binding. Conditions: effector; IpsA preincubated 20 min with effector, then DNA; 50 mM Tris-HCl pH 7.5, 40 mM KCl, 5 mM MgCl2, room temperature.

For data set [2], the target named is T2, IpsA-Strep (Corynebacterium glutamicum ATCC 13032, UniProt Q8NMF0 1-358).
T2 sequence: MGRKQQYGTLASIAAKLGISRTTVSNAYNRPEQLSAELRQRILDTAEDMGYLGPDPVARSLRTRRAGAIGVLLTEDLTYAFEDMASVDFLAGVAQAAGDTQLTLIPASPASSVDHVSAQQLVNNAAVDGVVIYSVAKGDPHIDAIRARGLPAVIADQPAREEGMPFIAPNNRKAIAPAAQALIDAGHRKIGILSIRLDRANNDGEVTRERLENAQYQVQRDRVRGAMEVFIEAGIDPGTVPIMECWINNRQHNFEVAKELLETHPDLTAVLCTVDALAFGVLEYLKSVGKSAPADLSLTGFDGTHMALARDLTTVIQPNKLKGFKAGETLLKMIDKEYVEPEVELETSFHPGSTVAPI
The data set can be described thus: EMSA; EMSA: 50 mM Tris-HCl pH 7.5, 40 mM KCl, 5 mM MgCl2, room temperature, 10 uL, DNA 0.028-1 uM, 10-15% native PAGE. To be noted: protein: recombinant; tags: C-terminal STREP-tag; chain copies: 2; blunt. A general note: A gel shift assay detects complexes by their altered migration in electrophoresis.

Consider `O[C@H]1[C@H](O)[C@@H](O)[C@H](O)[C@@H](O)[C@H]1O` [myo-I, myo-inositol], for which, in data set [1], the “lowest concentration with observed effect” value is 0.2 mM.

B1: cg3323 M4 (dsDNA)
DNA 1: TTGAGTTGCTTGATCTCGCAGGTCTGATTT
DNA 2: AAATCAGACCTGCGAGATCAAGCAACTCAA
In the case of B1, the binding result in data set [2] is recorded as “no binding”.

B2: cg3323 M3 (dsDNA)
DNA 1: TTGAGTTGCTTGCGAGATCAGGTCTGATTT
DNA 2: AAATCAGACCTGATCTCGCAAGCAACTCAA
For the molecule B2, the binding result in data set [2] was “no binding”.

B3: cg3323 WT 30-mer (dsDNA)
DNA 1: TTGAGTTGCTTGATCGATCAGGTCTGATTT
DNA 2: AAATCAGACCTGATCGATCAAGCAACTCAA
On to B3, for which, in data set [2], the binding result is reported as “binds”.

B4: cg3323 M5 (dsDNA)
DNA 1: TTGAGTTGCTTGATCGATACTGTCTGATTT
DNA 2: AAATCAGACAGTATCGATCAAGCAACTCAA
Consider B4, for which the binding result in data set [2] was “binds”.

For the origin of these results see PMC3899939, “IpsA, a novel LacI-type regulator, is required for inositol-derived lipid formation in Corynebacteria and Mycobacteria” (BMC Biology, 2013).
